# Experimental data published in paper doi:10.1101/2020.11.06.371773.
# Several values for one entry are separate records, joined by “and”; a condition that tells them apart may be missing. Identical values can stand only once.
# Molecular target: Mayaro virus (MAYV) capsid (C) protein, strain IQT4235 (Mayaro virus, strain IQT4235)
# Assay: cryo-EM structure
substance,measurement,value
"Mayaro virus (MAYV) capsid (C) protein, strain IQT4235 (natural protein)",stoichiometry N,6 and 5
